Data taken from publication PMC4258232 (Cell stem cell, 2014).
Residue numbers refer to the chain shown, from its start. Names and notes keep the numbering of the source. Like-named read-outs stand apart in the source and are kept apart here. Values belong to the binder of their own block, whether it stands above or below them.

Experiments:
GST-SET7/9 (full length) [1] = molecular target: T1, GST-SET7/9 (full length) (UniProt Q8WTS6 1-366); assay: pull-down
T1 sequence (looked up): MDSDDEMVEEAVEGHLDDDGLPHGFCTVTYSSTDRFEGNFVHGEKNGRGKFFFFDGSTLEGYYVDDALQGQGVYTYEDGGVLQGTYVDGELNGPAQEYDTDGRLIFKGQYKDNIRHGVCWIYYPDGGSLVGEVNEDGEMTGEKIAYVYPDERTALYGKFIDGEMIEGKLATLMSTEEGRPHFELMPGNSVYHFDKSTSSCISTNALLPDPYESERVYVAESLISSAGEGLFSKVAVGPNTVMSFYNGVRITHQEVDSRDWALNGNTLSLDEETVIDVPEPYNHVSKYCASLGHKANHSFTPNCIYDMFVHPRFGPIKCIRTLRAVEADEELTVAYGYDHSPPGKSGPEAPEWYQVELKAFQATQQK

GST-SET7/9 (full length) [2] = molecular target: T1, GST-SET7/9 (full length); assay: pull-down; remark: listed apart in the source

- binding result (GST-SET7/9 (full length) [1]): binds
B1: 6×HIS-LIN28A (full length) (natural protein, UniProt Q9H9Z2 1-209, looked up)
chain: MGSVSNQQFAGGCAKAAEEAPEEAPEDAARAADEPQLLHGAGICKWFNVRMGFGFLSMTARAGVALDPPVDVFVHQSKLHMEGFRSLKEGEAVEFTFKKSAKGLESIRVTGPGGVFCIGSERRPKGKSMQKRRSKGDRCYNCGGLDHHAKECKLPPQPKKCHFCQSISHMVASCPLKAQQGPSAQGKPTYFREEEEEIHSPTLLPEAQN

- binding result (GST-SET7/9 (full length) [1]): binds
B2: 6×HIS-LIN28A-K135R (full length) (natural protein, UniProt Q9H9Z2 1-209, looked up)
chain: B1 chain with K135R

- binding result (GST-SET7/9 (full length) [2]): binds
B3: LIN28A carboxyl terminus (amino acids 125-209) (domain or fragment, UniProt Q9H9Z2 125-209, looked up)
chain: KGKSMQKRRSKGDRCYNCGGLDHHAKECKLPPQPKKCHFCQSISHMVASCPLKAQQGPSAQGKPTYFREEEEEIHSPTLLPEAQN
